Data set [1] concerns the molecule itself. The experiment in a line: non-reducing SDS-PAGE with immunoblot. Background: In western blotting, separated proteins are transferred to a membrane and probed.
In data set [2] the target is T1, Peroxiredoxin 6 (PRDX6), native, human kidney (human (endogenous in human kidney)), P30041.
T1 chain: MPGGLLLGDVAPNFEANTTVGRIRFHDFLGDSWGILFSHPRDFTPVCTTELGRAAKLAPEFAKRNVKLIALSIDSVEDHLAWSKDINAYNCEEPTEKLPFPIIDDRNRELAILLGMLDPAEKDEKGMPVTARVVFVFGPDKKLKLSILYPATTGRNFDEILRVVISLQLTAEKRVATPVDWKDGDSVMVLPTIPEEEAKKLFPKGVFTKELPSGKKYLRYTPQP
Kind of data set: non-reducing SDS-PAGE with immunoblot. The settings on record: remark: other sources report otherwise.

Data set [3] deals with the molecule itself. Kind of data set: non-reducing SDS-PAGE with Coomassie stain.

B1: Peroxiredoxin 6 (PRDX6), native, mouse kidney (natural protein, mouse (endogenous in mouse kidney), UniProt O08709 1-224, looked up)
chain: MPGGLLLGDEAPNFEANTTIGRIRFHDFLGDSWGILFSHPRDFTPVCTTELGRAAKLAPEFAKRNVKLIALSIDSVEDHLAWSKDINAYNGETPTEKLPFPIIDDKGRDLAILLGMLDPVEKDDNNMPVTARVVFIFGPDKKLKLSILYPATTGRNFDEILRVVDSLQLTGTKPVATPVDWKKGESVMVVPTLSEEEAKQCFPKGVFTKELPSGKKYLRYTPQP
With B1, in data set [1], the stoichiometry N – broadly, a count of units in the complex or per binding partner – came out at 2.

B2: Peroxiredoxin 6 (PRDX6), native, human kidney, P30041 1-224 (natural protein)
chain: MPGGLLLGDVAPNFEANTTVGRIRFHDFLGDSWGILFSHPRDFTPVCTTELGRAAKLAPEFAKRNVKLIALSIDSVEDHLAWSKDINAYNCEEPTEKLPFPIIDDRNRELAILLGMLDPAEKDEKGMPVTARVVFVFGPDKKLKLSILYPATTGRNFDEILRVVISLQLTAEKRVATPVDWKDGDSVMVLPTIPEEEAKKLFPKGVFTKELPSGKKYLRYTPQP
Take B2: the stoichiometry N in data set [2] came to 2.

B3: N-terminal histidine-tagged PRDX6 with cysteine 47 changed to alanine (HisPRDX6-C47A) (natural protein, UniProt P30041 1-224, looked up)
chain: MPGGLLLGDVAPNFEANTTVGRIRFHDFLGDSWGILFSHPRDFTPVATTELGRAAKLAPEFAKRNVKLIALSIDSVEDHLAWSKDINAYNCEEPTEKLPFPIIDDRNRELAILLGMLDPAEKDEKGMPVTARVVFVFGPDKKLKLSILYPATTGRNFDEILRVVISLQLTAEKRVATPVDWKDGDSVMVLPTIPEEEAKKLFPKGVFTKELPSGKKYLRYTPQP
B3: the “stoichiometry N” value in data set [3] is 2.
